Experimental data published in paper PMC9858521 (Science Advances, 2023).
Ends that are not written are not given here. * marks the point of attachment. Biotin = O=C1N[C@H]2[C@H](CS[C@H]2CCCCC(=O)*)N1

T1: FLAG-γ1-COP (N-terminal FLAG-tagged human γ1-COP) (human, UniProt Q9Y678 1-874)
T1 sequence (looked up): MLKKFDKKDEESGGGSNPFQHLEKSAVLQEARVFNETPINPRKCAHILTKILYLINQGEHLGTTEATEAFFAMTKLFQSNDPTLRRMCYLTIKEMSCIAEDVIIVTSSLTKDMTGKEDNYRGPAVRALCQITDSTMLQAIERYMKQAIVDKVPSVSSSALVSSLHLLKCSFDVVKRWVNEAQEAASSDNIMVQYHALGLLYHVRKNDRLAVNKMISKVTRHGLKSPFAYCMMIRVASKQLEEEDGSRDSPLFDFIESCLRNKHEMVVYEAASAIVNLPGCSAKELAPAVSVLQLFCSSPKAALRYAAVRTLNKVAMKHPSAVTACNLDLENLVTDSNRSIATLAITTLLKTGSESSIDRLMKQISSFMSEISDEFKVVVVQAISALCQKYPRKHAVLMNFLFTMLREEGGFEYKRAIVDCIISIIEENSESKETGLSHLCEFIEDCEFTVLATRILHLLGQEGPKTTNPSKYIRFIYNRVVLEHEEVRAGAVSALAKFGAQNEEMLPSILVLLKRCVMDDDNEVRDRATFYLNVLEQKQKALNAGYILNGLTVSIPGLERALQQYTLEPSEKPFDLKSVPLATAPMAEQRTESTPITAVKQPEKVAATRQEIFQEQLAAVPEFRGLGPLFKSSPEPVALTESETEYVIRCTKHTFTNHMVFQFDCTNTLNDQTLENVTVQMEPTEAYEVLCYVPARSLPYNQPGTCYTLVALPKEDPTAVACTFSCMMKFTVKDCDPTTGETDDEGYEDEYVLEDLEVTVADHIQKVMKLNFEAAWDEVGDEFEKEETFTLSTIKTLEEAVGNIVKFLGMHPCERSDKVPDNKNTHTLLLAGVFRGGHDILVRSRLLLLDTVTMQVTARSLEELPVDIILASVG

B1: HA-(Δ1–67) L2-3xFLAG (domain or fragment, HPV16, UniProt P03107 68-473, looked up)
chain: GRTGYIPLGTRPPTATDTLAPVRPPLTVDPVGPSDPSIVSLVEETSFIDAGAPTSVPSIPPDVSGFSITTSTDTTPAILDINNTVTTVTTHNNPTFTDPSVLQPPTPAETGGHFTLSSSTISTHNYEEIPMDTFIVSTNPNTVTSSTPIPGSRPVARLGLYSRTTQQVKVVDPAFVTTPTKLITYDNPAYEGIDVDNTLYFSSNDNSINIAPDPDFLDIVALHRPALTSRRTGIRYSRIGNKQTLRTRSGKSIGAKVHYYYDLSTIDPAEEIELQTITPSTYTTTSHAASPTSINNGLYDIYADDFITDTSTTPVPSVPSTSLSGYIPANTTIPFGGAYNIPLVSGPDIPINITDQAPSLIPIVPGSPQYTIIADAGDFYLHPSYYMLRKRRKRLPYFFSDVSLAA
B2: biotin-tagged WT HPV16 L2 peptide (residues T299 to L312) (peptide)
peptide: Biotin-TGIRYSRIGNKQTL

How the values were obtained:
[1] = target: T1, FLAG-γ1-COP (N-terminal FLAG-tagged …); assay: co-IP
[2] = target: T1, FLAG-γ1-COP (N-terminal FLAG-tagged …); assay: pull-down

Binder	binding result [1]	binding result [2]
B1	binds	–
B2	–	binds
